Laboratory results as given in paper PMC2848554, “Topology and Organization of the Salmonella typhimurium Type III Secretion Needle Complex Components” (PLoS Pathogens, 2010).

B1: PrgH (natural protein)
chain: METSKEKTITSPGPYIVRLLNSSLNGCEFPLLTGRTLFVVGQSDALTASGQLPDIPADSFFIPLDHGGVNFEIQVDTDATEIILHELKEGNSESRSVQLNTPIQVGELLILIRPESEPWVPEQPEKLETSAKKNEPRFKNGIVAALAGFFILGIGTVGTLWILNSPQRQAAELDSLLGQEKERFQVLPGRDKMLYVAAQNERDTLWARQVLARGDYDKNARVINENEENKRISIWLDTYYPQLAYYRIHFDEPRKPVFWLSRQRNTMSKKELEVLSQKLRALMPYADSVNITLMDDVTAAGQAEAGLKQQALPYSRRNHKGGVTFVIQGALDDVEILRARQFVDSYYRTWGGRYVQFAIELKDDWLKGRSFQYGAEGYIKMSPGHWYFPSPL
notes: PrgH, inner ring protein of the SPI-1 type III secretion needle complex, S. typhimurium; wild-type chromosomal allele; the N-terminal amino group of Met-1 (peptide METSK) was cross-linked; predicted transmembrane domain 142-162; Stood in the assays as a subunit of the whole purified needle complex or of the ΔinvG substructure, not as an isolated protein; source: endogenous, S. typhimurium strains …
B2: PrgK (natural protein)
chain: CKDKDLLKGLDQEQANEVIAVLQMHNIEANKIDSGKLGYSITVAEPDFTAAVYWIKTYQLPPRPRVEIAQMFPADSLVSSPRAEKARLYSAIEQRLEQSLQTMEGVLSARVHISYDIDAGENGRPPKPVHLSALAVYERGSPLAHQISDIKRFLKNSFADVDYDNISVVLSERSDAQLQAPGTPVKRNSFATSWIVLIILLSVMSAGFGVWYYKNHYARNKKGITADDKAKSSNE
modifications: lipoprotein; lipidated N-terminal cysteine (Cys-18)
notes: PrgK, lipoprotein of the SPI-1 needle complex base, S. typhimurium; predicted transmembrane domain 207-227; printed residue numbers include the signal peptide; Stood in the assays as a subunit of the purified needle complex or its substructures; source: endogenous, S. typhimurium strains SB905 (w.t.), SB1171 (ΔinvG) and SB906 complemented with plasmid-borne PrgH; purified within needle complexes
B3: InvG (natural protein)
chain: SEKIPVTGSGFVAKDDSLRTFFDAMALQLKEPVIVSKMAARKKITGNFEFHDPNALLEKLSLQLGLIWYFDGQAIYIYDASEMRNAVVSLRNVSLNEFNNFLKRSGLYNKNYPLRGDNRKGTFYVSGPPVYVDMVVNAATMMDKQNDGIELGRQKIGVMRLNNTFVGDRTYNLRDQKMVIPGIATAIERLLQGEEQPLGNIVSSEPPAMPAFSANGEKGKAANYAGGMSLQEALKQNAAAGNIKIVAYPDTNSLLVKGTAEQVHFIEMLVKALDVAKRHVELSLWIVDLNKSDLERLGTSWSGSITIGDKLGVSLNQSSISTLDGSRFIAAVNALEEKKQATVVSRPVLLTQENVPAIFDNNRTFYTKLIGERNVALEHVTYGTMIRVLPRFSADGQIEMSLDIEDGNDKTPQSDTTTSVDALPEVGRTLISTIARVPHGKSLLVGGYTRDANTDTVQSIPFLGKLPLIGSLFRYSSKNKSNVVRVFMIEPKEIVDPLTPDASESVNNILKQSGAWSGDDKLQKWVRVYLDRGQEAIK
notes: InvG, secretin of the SPI-1 needle complex (outer rings and neck), S. typhimurium; processed InvG starts at Ser-25; printed residue numbers include the signal peptide; Stood in the assays as a subunit of the purified needle complex; source: endogenous, S. typhimurium strain SB905 (w.t.) and SB906 complemented with plasmid-borne PrgH; purified within needle complexes
B4: PrgH mutant lacking its last 4 amino acids (PrgH^Δ4) (domain or fragment)
chain: METSKEKTITSPGPYIVRLLNSSLNGCEFPLLTGRTLFVVGQSDALTASGQLPDIPADSFFIPLDHGGVNFEIQVDTDATEIILHELKEGNSESRSVQLNTPIQVGELLILIRPESEPWVPEQPEKLETSAKKNEPRFKNGIVAALAGFFILGIGTVGTLWILNSPQRQAAELDSLLGQEKERFQVLPGRDKMLYVAAQNERDTLWARQVLARGDYDKNARVINENEENKRISIWLDTYYPQLAYYRIHFDEPRKPVFWLSRQRNTMSKKELEVLSQKLRALMPYADSVNITLMDDVTAAGQAEAGLKQQALPYSRRNHKGGVTFVIQGALDDVEILRARQFVDSYYRTWGGRYVQFAIELKDDWLKGRSFQYGAEGYIKMSPGHWYF
notes: PrgH of S. typhimurium without its last 4 amino acids; also called C-terminal truncated PrgH; source: S. typhimurium SB906 (chromosomal ΔprgH) complemented with a pWSK29 plasmid, natural promoter; purified within needle complexes; copies: 24

Tests used:
[1] = target: B3; experiment: cross-linking; sucrose gradient purified whole needle complexes (about 1 mg/ml, w.t. strain SB905) on ice with 200 µM BS2G-d0/d4 for 30 or 60 min; single particles re-purified on sucrose gradients; tryptic digestion in solution, high-resolution mass spectrometry, xQuest score above 15; settings: both partners purified
[2] = target: B1; experiment: as above; settings: both partners purified
[3] = target: B4; experiment: negative-stain electron microscopy, single particle analysis; purified needle complexes incubated in 10 mM sodium phosphate pH 10.4 (legend: pH 10.5), 0.5 M NaCl, 0.1% LDAO, 15 min at 37°C, sucrose gradient, then negative stain (PTA or NanoVan); no symmetry imposed, rotational cross-correlation; settings: both partners purified
[4] = target: the molecule itself; experiment: as above
[5] = target: the molecule itself; experiment: cryo electron microscopy, single particle class averages; purified complexes from wild type and ΔinvG strains, vitrified; two-dimensional class averages and their density difference
[6] = target: B3; experiment: negative-stain electron microscopy; purified needle complexes of the PrgH^Δ4 strain, without high pH treatment; negative stain; settings: both partners purified

Does B1 bind [1]?
Result: binds

Does B2 bind [2]?
Result: binds

Does B2 bind [3]?
Result: binds

And the “stoichiometry N” value [4]?
Its value is 24.

Does B3 bind [5]?
Result: binds

Which results are given for B4?
binding result [6]: binds; stoichiometry N [4]: 24
